Among the data in US20240002509A1 are Maximum response values, retold here.

For the experiment, the target named is human FcγR1A (human) (UniProt P12314). Kind of experiment: SPR (Biacore T200), antibody amine-coupled on CM5 (~950 RU), receptor as analyte, 25 C.
UniProt P12314, sequence (P12314 16-288 limits assumed): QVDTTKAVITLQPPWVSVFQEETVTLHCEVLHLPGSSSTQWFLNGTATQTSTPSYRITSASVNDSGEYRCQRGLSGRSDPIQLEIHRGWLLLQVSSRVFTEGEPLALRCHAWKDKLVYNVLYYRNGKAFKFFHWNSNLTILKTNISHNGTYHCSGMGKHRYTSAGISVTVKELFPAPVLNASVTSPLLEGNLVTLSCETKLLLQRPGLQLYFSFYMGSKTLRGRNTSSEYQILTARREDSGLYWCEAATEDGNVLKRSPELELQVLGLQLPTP
Turning to “DANAPA-IgG1 (D265A/N297A/P329A) anti-CD3 antibody”, the Maximum response at 100 nM hFcgammaRIA (RU) was determined as 11 RU.

For “DAPASK-IgG1 (D265A/P329A/S267K) anti-CD3 antibody”, the Maximum response at 100 nM hFcgammaRIA (RU) came to 13 RU.

“LALASKPA-IgG1 (L234A/L235A/S267K/P329A) anti-CD3 antibody” showed a Maximum response at 100 nM hFcgammaRIA (RU) of 9 RU.

Turning to “GADAPASK-IgG1 (G237A/D265A/P329A/S267K) anti-CD3 antibody”, the Maximum response at 100 nM hFcgammaRIA (RU) was found to be 10 RU.

“LALAGA-IgG1 (L234A/L235A/G237A) anti-CD3 antibody” gave a Maximum response at 100 nM hFcgammaRIA (RU) of 15 RU.

“GADAPA-IgG1 (G237A/D265A/P329A) anti-CD3 antibody” displayed a Maximum response at 100 nM hFcgammaRIA (RU) of 16 RU.

“LALAPG-IgG1 (L234A/L235A/P329G) anti-CD3 antibody” displayed a Maximum response at 100 nM hFcgammaRIA (RU) of 18 RU.
